Experimental findings from paper doi:10.1101/2022.12.06.519310 (bioRxiv, 2022) are described below.

The assay addresses full length recombinant WDR5 (human, UniProt P61964 1-334). The assay is described as follows: pull-down.

Ends that are not written are not given here. * marks the point of attachment. NHCH2CH2(5-OH-indol-3-yl) = Oc1ccc2[nH]cc(CCN*)c2c1

In the case of ARTKQ(NHCH2CH2(5-OH-indol-3-yl))TARKS (also: biotinylated, position not given here) [biotinylated H3 (1-10) Q5ser peptide], the binding result is given as “binds”.

As for ARTKQTARKS (also: biotinylated, position not given here) [biotinylated H3 (1-10) unmodified peptide], the binding result is “binds”.
